Results reported in article PMC2920259 (Nature structural & molecular biology, 2010).

Molecular target: the molecule itself
Experiment: crystal structure

B1: IbpAFic2^H3717A (domain or fragment, Histophilus somni, UniProt Q06277 3482-3797, looked up)
chain: DETANKVNYQDLEDNLNLKGLISLEDDRNANFESNVLKNEKFLDEAREISKKSIPEATVKQMSHLPEFDDILTEGAKKVESRINKAITFRPSVEEFSEIQDLVKTLPKTKVIEDLSTKTNEITEALAATSKTIQRTPELKEQLKTAIEDFLQNSQGKPLTVQMIENLNHGLRPDEGEGRLLYKKENLTKENAVFSSPEAAKIQLAETVDFINRAKNEGIEPSVVGALVYQRLIAYAPFAEGNGRMARVIVNKILLDAGYPAFTKFSDEFEPQIIPQTKASTKSATSSEVVVEFLKELAKKGSKEDNEQNLEKTDRT
- binding result: binds
